Assays:
[1] = biological target: T1, HLA-A*02:01 in complex with the EGFR peptide … conjugated with osimertinib (human, osimertinib covalently bound to Cys); test: phage display selection; MBBA
T1 construct: also called HLA-A*02:01_EGFR-osimertinib; osimertinib-EGFR/HLA-A*02

[2] = biological target: T2, HLA-A*11:01 in complex with the KRAS (wild type) peptide … (human); test: MBBA titration of purified IgG (FIG. 11)
T2 construct: also called HLA-A*11:01_WTRAS

[3] = biological target: T3, HLA-A*03:01 in complex with the KRAS (wild type) peptide … (human); test: MBBA titration of purified IgG (FIG. 11)
T3 construct: also called HLA-A*03:01_WTRAS

[4] = biological target: T3, HLA-A*03:01 in complex with the KRAS …; test: flow cytometry on peptide-loaded Raji cells (FIG. 16)

Binder | binding result [1] | binding result [2] | binding result [3] | binding result [4]
OEA2-21 (antibody, V domains shown, phage-display clone) VH: EVQLVESGGGLVQPGGSLRLSCAASGFTFSSSYIHWVRQAPGKGLEWVASISPSYGYTSYADSVKGRFTISADTSKNTAYLQMNSLRAEDTAVYYCARDMYEWWHWAIDYWGQGTLVTVSS VL: DIQMTQSPSSLSASVGDRVTITCRASQSVSSAVAWYQQKPGKAPKLLIYSASSLYSGVPSRFSGSRSGTDFTLTISSLQPEDFATYYCQQSSWGGLVTFGQGTKVEIKR | binds | – | – | –
AMRA11-15 (antibody, human IgG1, V domains shown, phage-display clone; purified as human IgG1/kappa) VH: EVQLVESGGGLVQPGGSLRLSCAASGFTVYYSSIHWVRQAPGKGLEWVASIYSYYGSTYYADSVKGRFTISADTSKNTAYLQMNSLRAEDTAVYYCARGEKWALDYWGQGTLVTVSS VL: DIQMTQSPSSLSASVGDRVTITCRASQSVSSAVAWYQQKPGKAPKLLIYSASSLYSGVPSRFSGSRSGTDFTLTISSLQPEDFATYYCQQFDFQYLITFGQGTKVEIKR | – | no binding | no binding | –
OEA2-12 (antibody, V domains shown, phage-display clone) VH: EVQLVESGGGLVQPGGSLRLSCAASGFTIYSSSIHWVRQAPGKGLEWVASISSYYGYTSYADSVKGRFTISADTSKNTAYLQMNSLRAEDTAVYYCARYQYYGSLYYSQQWAMDYWGQGTLVTVSS VL: DIQMTQSPSSLSASVGDRVTITCRASQSVSSAVAWYQQKPGKAPKLLIYSASSLYSGVPSRFSGSRSGTDFTLTISSLQPEDFATYYCQQYDWNYYLVTFGQGTKVEIKR | binds | – | – | –
AMRA3-7 (antibody, human IgG1, V domains shown, phage-display clone; purified as human IgG1/kappa; also called AMRA3-7 hIgG1) VH: EVQLVESGGGLVQPGGSLRLSCAASGFTFSSYSIHWVRQAPGKGLEWVASIYSSYGYTSYADSVKGRFTISADTSKNTAYLQMNSLRAEDTAVYYCARGGWYPAMDYWGQGTLVTVSS VL: DIQMTQSPSSLSASVGDRVTITCRASQSVSSAVAWYQQKPGKAPKLLIYSASSLYSGVPSRFSGSRSGTDFTLTISSLQPEDFATYYCQQISYVYSLITFGQGTKVEIKR | – | no binding | no binding | –
AMRA3-18 (antibody, human IgG1, V domains shown, phage-display clone; purified as human IgG1/kappa; also called AMRA3-18 hIgG1) VH: EVQLVESGGGLVQPGGSLRLSCAASGFTVSYSSIHWVRQAPGKGLEWVASISSSSGYTSYADSVKGRFTISADTSKNTAYLQMNSLRAEDTAVYYCARYAWWAHGLDYWGQGTLVTVSS VL: DIQMTQSPSSLSASVGDRVTITCRASQSVSSAVAWYQQKPGKAPKLLIYSASSLYSGVPSRFSGSRSGTDFTLTISSLQPEDFATYYCQQGSYTYRLITFGQGTKVEIKR | – | no binding | no binding | –
P2AMR-1 in the human IgG1 format (antibody, V domains shown, human IgG1; also called P2AMR-1 IgG) VH: QVQLVQSEPEVKKPGSSVKLSCKASGGTFSTDAITWVRQAPGQGLEYMGGIIPLLDSVDYAQRFQGRVTVSADKSTGTAYMEVRSLGSEDTAKYYCAKWSSVDTGLDYWGQGTLVTVSS VL: QSVLIQPRSVSGSPGQSVTISCTGTSSDVGGYNYVSWYQQHPGKAPKLMIYDVSKRPSGVPDRFSGSKSGNTASLTVSGLQAEDEADYYCGSYADTDTIVFGTGTKLTVL | – | – | – | no binding
OEA2-1 (antibody, V domains shown, phage-display clone) VH: EVQLVESGGGLVQPGGSLRLSCAASGFTFSSSSIHWVRQAPGKGLEWVASISSSSGSTSYADSVKGRFTISADTSKNTAYLQMNSLRAEDTAVYYCARYYGYVWGGYWGWWYSKALDYWGQGTLVTVSS VL: DIQMTQSPSSLSASVGDRVTITCRASQSVSSAVAWYQQKPGKAPKLLIYSASSLYSGVPSRFSGSRSGTDFTLTISSLQPEDFATYYCQQSSSSLITFGQGTKVEIKR | binds | – | – | –
AMRA3-22 (antibody, human IgG1, V domains shown, phage-display clone; purified as human IgG1/kappa; also called AMRA3-22 hIgG1) VH: EVQLVESGGGLVQPGGSLRLSCAASGFTFYSSSIHWVRQAPGKGLEWVAYIYSSSGYTSYADSVKGRFTISADTSKNTAYLQMNSLRAEDTAVYYCARPVNYYYQGALDYWGQGTLVTVSS VL: DIQMTQSPSSLSASVGDRVTITCRASQSVSSAVAWYQQKPGKAPKLLIYSASSLYSGVPSRFSGSRSGTDFTLTISSLQPEDFATYYCQQSDMPPITFGQGTKVEIKR | – | no binding | no binding | –
AMRA311-17 (antibody, human IgG1, V domains shown, phage-display clone; purified as human IgG1/kappa; also called AMRA311-17 hIgG1) VH: EVQLVESGGGLVQPGGSLRLSCAASGFTISSSSIHWVRQAPGKGLEWVASISSYSGSTYYADSVKGRFTISADTSKNTAYLQMNSLRAEDTAVYYCARYPYGSHVYTGLDYWGQGTLVTVSS VL: DIQMTQSPSSLSASVGDRVTITCRASQSVSSAVAWYQQKPGKAPKLLIYSASSLYSGVPSRFSGSRSGTDFTLTISSLQPEDFATYYCQQSSSSLITFGQGTKVEIKR | – | no binding | no binding | –
OEA2-16 (antibody, V domains shown, phage-display clone) VH: EVQLVESGGGLVQPGGSLRLSCAASGFTFSSSSIHWVRQAPGKGLEWVASISSSSGSTSYADSVKGRFTISADTSKNTAYLQMNSLRAEDTAVYYCARSPSSPYFMSWGWYWQYGIDYWGQGTLVTVSS VL: DIQMTQSPSSLSASVGDRVTITCRASQSVSSAVAWYQQKPGKAPKLLIYSASSLYSGVPSRFSGSRSGTDFTLTISSLQPEDFATYYCQQSSSSLITFGQGTKVEIKR | binds | – | – | –
AMRA311-16 (antibody, human IgG1, V domains shown, phage-display clone; purified as human IgG1/kappa; also called AMRA311-16 hIgG1) VH: EVQLVESGGGLVQPGGSLRLSCAASGFTISSSSIHWVRQAPGKGLEWVAYISSYSGYTYYADSVKGRFTISADTSKNTAYLQMNSLRAEDTAVYYCARYWYGHYHSYFGLDYWGQGTLVTVSS VL: DIQMTQSPSSLSASVGDRVTITCRASQSVSSAVAWYQQKPGKAPKLLIYSASSLYSGVPSRFSGSRSGTDFTLTISSLQPEDFATYYCQQSSSSLITFGQGTKVEIKR | – | no binding | no binding | –

Reference: patent US20250353912A1 (NEW YORK UNIVERSITY, published 2025)
